2 molecules from patent US12331106B2, “Anti-angiopoietin-2 antibodies that induce Tie2 activation” (Institute for Basic Science, priority 2018, dated 2025) can be followed below.

Assay [1] deals with LLC (Lewis Lung Carcinoma) tumor. In words: Tumor growth inhibition in LLC subcutaneous model. Type of assay: in vivo, C57BL/6 mice. As to conditions: LLC s.c.; antibody 10 mg/kg i.p. every 2-3 days; Cpt 3 mg/kg i.p. once. Here is the method: 2C8H11 anti-Ang2 antibody was tested for its ability to inhibit tumor growth in LLC (Lewis Lung Carcinoma) cell line tumor model. Specifically, LLC cell line (ATCC) was cultured in DMEM (GIBCO™) supplemented with 10% FBS (GIBCO™). LLC cells (1×10^6 in 100 μl of PBS) were subcutaneously injected into 6˜8-week-old C57BL/6 mice (Jackson Laboratory) which were anesthetized with a mixture of Ketamine and Xylazine. When the volume of the tumors reached 50˜100 mm^3, the mice were intraperitoneally administered with 10 mg/kg of 2C8H11 antibody every 2˜3 days. Cisplatin (Cpt) was injected intraperitoneally once at a dose of 3 mg/kg in both monotherapy and combination therapy groups. The changes in tumor volume was tracked over the following days. Tumor volume (V) was measured using the formula: V=(width^2×length)/2 V=(width^2×length)/2
The experiment was performed in 4 groups: Fc (control group), Fc+Cpt group, 2C8H11 group, and 2C8H11+Cpt group. […] Meanwhile, combined treatment with 2C8H11 and Cpt delayed tumor growth by 47% compared with Fc.

The subject of assay [2] is downstream signaling of the Tie2 receptor (Akt phosphorylation) in HUVECs. In words: Akt phosphorylation in HUVECs by humanized anti-Ang2 antibodies (immunoblot). The class given is cell-based, human. As to conditions: hAng2 1 μg/ml, 30 min, antibody 0.5 μg/ml, maintained until 50 μg/ml. The procedure:
To investigate whether the humanized anti-Ang2 antibodies induce the downstream signaling of the Tie2 receptor in endothelial cells, HUVECs (LONZA™) were treated with human Ang2 protein together with humanized anti-Ang2 antibody. Then, the level of Akt phosphorylation, the main downstream signaling protein of Tie2 receptor was measured by immunoblotting. To compare the degree of Akt activation, cells were treated with full-length hAng2 (R&D® Systems) alone or antibody alone in the experiment.
Specifically, HUVEC cells (1×10^5 cells/ml) were cultured in EGM-2 (LONZA™) at 37° C. in 60 mm culture dish. Cells of 90% confluency were incubated with EBM-2 (LONZA™) for 4 hrs. The serum-starved HUVECs were treated with the mixture of anti-Ang2 antibody and hAng2 protein (1 μg/ml, R&D® Systems), and further incubated for 30 min. The cells were washed with cold PBS, treated with lysis buffer, and lysed at 4° C. for 20 min. Then, the cell lysates were prepared by centrifugation at 13000 rpm for 15 min. 5× SDS sample buffer was added to the cell lysate and the mixture was boiled at 95° C. for 5 min. Then, the mixture was subjected to SDS-PAGE and subsequent Western blotting.
To investigate the phosphorylation of Akt, the membrane was blocked with 5% skim milk-containing TBST for 1 hr at RT, and incubated with anti-phospho-Akt antibody (S473) at 4° C. for about 8 hrs. […]
(In western blotting, separated proteins are transferred to a membrane and probed.)

Assay [3] relates to Tie2 receptor. Kind of assay: Tie2 phosphorylation in HUVECs (immunoprecipitation/Western). Type of assay: cell-based, human. Particulars: antibody 0.02-50 μg/ml with hAng2 1 μg/ml, 30 min. Here is the method: Ang2 binds to the Tie2 receptor and acts as a weak agonist or antagonist. The anti-Ang2 antibody developed in this invention binds to Ang2 to induce Ang2-antibody complexes, further causing clustering of Tie2 receptors and consequently enhancing activation of Tie2 receptor. Experiments were conducted to analyze the effect of anti-Ang2 antibody on Tie2 phosphorylation using HUVECs.
Specifically, HUVECs (LONZA™) were cultured in EGM-2 (LONZA™) at 37° C. and 5% CO2 concentration in a 100 mm culture dish. At 80-90% confluency, the cells were changed to EBM-2 (LONZA™) medium for 2 hrs˜ 6 hrs for serum starvation. Humanized anti-Ang2 antibodies at various concentrations (0.02 μg/ml to 50 μg/ml) were mixed with hAng2 protein (1 μg/ml, R&D® Systems) for 30 min. Then, the mixtures were treated with the cultured cells and further incubated for 30 min. The cells were washed twice with cold PBS and then lysed in 1000 μl of lysis buffer (10 mM Tris-Cl pH 7.4, 150 mM NaCl, 5 mM EDTA, 10% glycerol, 1% TRITON™ X-100 (non-ionic polyoxyethylene surfactant), protease inhibitor, phosphatase inhibitor) and then lysed at 4° C. for 60 min. Cell extracts were prepared and centrifuged at 12,000 rpm for 10 min. The supernatant was quantitated by bicinchoninic (BCA) assay.
To 0.5 mg of cell lysate, 1 μg of Tie2 antibody (R&D® Systems, AF313) was added and incubated overnight at 4° C. […]

For assay [4], the system named is Tie2 receptor clustering / FOXO1 translocation in HUVECs. Kind of assay: Tie2 clustering and FOXO1 translocation in HUVECs (immunofluorescence). The class given is cell-based, human. Particulars: HUVECs, 30 min. Here is the method:
Tie2 clustering at cell-cell junction area and FOXO1 translocation from nucleus to cytosol by anti-Ang2 antibodies were examined in HUVECs by immunofluorescence. Specifically, HUVECs were seeded on 8 well slide chamber (Lab-Tek™ II) and maintained in EGM-2 medium for 2-3 days. At 100% confluence, the cells were serum starved with EBM-2 medium for 4 hrs and then treated with 1 μg/ml anti-Ang2 antibodies together with 1 μg/ml of hAng2 for 30 min. Thereafter, the cells were fixed with 4% formaldehyde in PBS at room temperature (RT) for 10 min, permeabilized with 0.1% TRITON™ X-100 (non-ionic polyoxyethylene surfactant) in PBS, blocked with 1% BSA in PBS at RT for 60 min, and incubated with primary antibodies at RT for 1 hr. The primary antibodies for hTie2, FOXO1, and Human Fc were used. The cells were then incubated with secondary antibodies (Invitrogen) in the dark at RT for 1 hr and mounted with VECTASHIELD® mounting medium with DAPI (Vector Labs, antifade mounting media optimized for immunofluorescence applications). Images were taken with a laser scanning confocal microscope (LSM880, Carl Zeiss).
2C8H11-induced Tie2 clustering and FOXO1 translocation was examined in a time-course study (from 10 min to 240 min). […] 6-4: Inhibition of Vascular Permeability by Humanized Anti-Ang2 Antibodies

The test system of assay [5] is HUVEC monolayer. In words: In vitro vascular permeability (leakage) assay, TNF-α induced, FITC-dextran. Type of assay: cell-based, human. Particulars: HUVECs; pre-treatment antibody 1 μg/ml with Ang2 1 μg/ml 30 min; TNF-α 100 ng/ml 22 hr. The procedure:
Vascular leakage assay was carried out in HUVECs using In Vitro Vascular Permeability Assay Kit (Millipore®) according to the manufacturer's instruction. HUVECs were seeded into the insert of the transwell plate and cultured for 3 days for 100% confluence. The HUVECs were pre-incubated with Ang2 (1 μg/ml), Ang2 (1 μg/ml) together with Control, 2C8H11 or 4B9H11 antibody (1 μg/ml) for 30 min, and then TNF-α (100 ng/ml) was added, and the cells were incubated at 37° C. for 22 hr. FITC-dextran was added to the upper chamber and incubated for 20 min. Passage of FITC-dextran though the HUVEC monolayer was measured by a fluorescence reader at excitation and emission wavelengths of 485 and 535 nm, respectively.

For assay [6], the target named is T1, hAng2 (Homo sapiens, UniProt O15123).
T1 sequence (O15123 19-496): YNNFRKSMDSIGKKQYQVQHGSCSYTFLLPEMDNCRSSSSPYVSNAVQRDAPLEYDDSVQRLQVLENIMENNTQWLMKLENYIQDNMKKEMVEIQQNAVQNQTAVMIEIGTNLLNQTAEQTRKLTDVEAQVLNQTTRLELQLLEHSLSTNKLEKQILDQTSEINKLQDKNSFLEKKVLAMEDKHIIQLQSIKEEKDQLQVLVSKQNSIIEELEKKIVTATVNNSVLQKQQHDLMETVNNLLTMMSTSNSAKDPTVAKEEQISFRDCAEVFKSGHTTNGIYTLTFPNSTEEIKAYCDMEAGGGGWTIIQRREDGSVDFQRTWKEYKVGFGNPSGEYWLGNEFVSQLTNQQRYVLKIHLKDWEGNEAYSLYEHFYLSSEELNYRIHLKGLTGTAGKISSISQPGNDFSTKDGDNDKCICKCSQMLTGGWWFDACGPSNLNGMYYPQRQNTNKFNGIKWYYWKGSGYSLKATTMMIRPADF
In words: OCTET affinity of humanized anti-Ang2 antibodies against hAng2. Type of assay: binding. As to conditions: humanized 4B9 antibodies (IgG1) fixed on AR2G biosensor; hAng2 50-0 nM.

In the case of `N.N.[Cl][Pt][Cl]` [Fc+Cpt, Cisplatin, reference compound], the “tumor growth inhibition compared with Fc” value in assay [1] is reported as “similar”.

B1: 4B9H11: humanized anti-Ang2 human IgG1 antibody from mouse 4B9; VH SEQ ID NO: 43, VL SEQ ID NO: 44 (antibody, V domains shown)
VH: QVQLVESGGGLVKPGGSLRLSCAASGFTFSDYYMYWIRQAPGKGLEWVSTISVGGSFTYYPDSVKGRFTISRDNAKNSLYLQMNSLRAEDTAVYYCARDWGLRPWFVYWGQGTLVTVSS
VL: DIQMTQSPSSLSASVGDRVTITCKASQDVSTAVAWYQQKPGKAPKLLIYWASTRHTGVPSRFSGSGSGTDFTLTISSLQPEDFATYYCQQHYSTPPTFGQGTKVEIK
modifications: human IgG1 constant regions; VH; VL
For the molecule B1, in assay [2], the Akt phosphorylation result was “increased markedly”. Besides, the “phosphorylation of Tie2” value in assay [3] was “strongly induced in a dose-dependent manner”. Moreover, the “co-localization of antibody with Tie2 receptor” value in assay [4] (anti-human Fc staining) was “co-localized with clustered Tie2 receptor at cell-cell contact and endocytosed Tie2 receptor in cytosol”. Further, the “Tie2 translocation/clustering to cell-cell contact” value in assay [4] (antibodies 1 μg/ml with hAng2 1 μg/ml) is recorded as “induced Tie2 translocation/clustering to cell-cell contact”. The “FOXO1 translocation from nucleus to cytosol” value in assay [4] (compared to serum-starved control) is on record as “markedly disappeared in nucleus”. For the same molecule, the “vascular leakage induced by TNF-α (passage of FITC-dextran)” value in assay [5] is reported as “significantly inhibited”. In addition, in assay [6], the “Kdis” value was 1.58e-06 s⁻¹ and the “Kon” value was 92900 M⁻¹ s⁻¹.
